Data set [1] relates to mouse myoblast (C2C12). In words: Example 44 signal sequence exchange study, secreted G-CSF ELISA. Particulars: MM, 250 ng modified mRNA, supernatant after 24 hrs. The data set is classed as cell-based. The source says:
(§1) These variants included the G-CSF constructs encoding either the wild-type N terminal secretory signal peptide sequence ([…]; SEQ ID NO: 21), no secretory signal peptide sequence, or secretory signal peptide sequences taken from other mRNAs. These included sequences where the wild type GCSF signal peptide sequence was replaced with the signal peptide sequence of either: human α-1-anti trypsin (AAT) ([…]; SEQ ID NO: 22), human Factor IX (FIX) ([…]; SEQ ID NO: 23), human Prolactin (Prolac) ([…]; SEQ ID NO: 24), or human Albumin (Alb) ([…]; SEQ ID NO: 25).
(§2) 250 ng of modified mRNA encoding each G-CSF variant was transfected into HEK293A (293A in the table), mouse myoblast (MM in the table) (C2C12, CRL-1772, ATCC) and rat myoblast (RM in the table) (L6 line, CRL-1458, ATCC) cell lines in a 24 well plate using 1 ul of Lipofectamine 2000 (Life Technologies), each well containing 300,000 cells. […] The data shown in Table 68 reveal that cells transfected with G-CSF mmRNA encoding the Albumin signal peptide secrete at least 12 fold more G-CSF protein than its wild type counterpart.
On the technique in general: In an ELISA, binding on a coated surface is turned into a signal by an enzyme label.

In data set [2] the test system is rat myoblast (L6 line). The description is as above. The class given is cell-based. The note with it: RM, 250 ng modified mRNA, supernatant after 24 hrs.
Source text: as §1, §2

The test system of data set [3] is HEK293A. The data set is described as above. Particulars: 293A, 250 ng modified mRNA, supernatant after 24 hrs. The data set is classed as cell-based, human.
Source text: as §1, §2

Data set [4] deals with Human primary foreskin fibroblasts (BJ fibroblasts). Put plainly: Innate immune response transcripts in BJ fibroblasts, single transfection (qPCR). The class given is cell-based. Particulars: 250 ng, 18 hours. As for the experimental part: The cells were harvested after 18 hours, the total RNA was isolated and DNASE® treated using the RNeasy micro kit (catalog #74004) following the manufacturer's protocol. 100 ng of total RNA was used for cDNA synthesis using High Capacity cDNA Reverse Transcription kit (catalog #4368814) following the manufacturer's protocol. The cDNA was then analyzed for the expression of innate immune response genes by quantitative real time PCR using SybrGreen in a Biorad CFX 384 instrument following manufacturer's protocol. […] In the table, the panel of standard metrics includes: RIG-I is retinoic acid inducible gene 1, IL6 is interleukin-6, OAS-1 is oligoadenylate synthetase 1, IFNb is interferon-beta, AIM2 is absent in melanoma-2, IFIT-1 is interferon-induced protein with tetratricopeptide repeats 1, PKR is protein kinase R, TNFa is tumor necrosis factor alpha and IFNa is interferon alpha.

Data set [5] shares this test system. In words: Innate immune response in BJ fibroblasts, repeat transfection: cytokine response. The data set is classed as cell-based.
Data set [6] has as its system Female BALB/C mice. Put plainly: In vivo detection of innate immune response: human G-CSF and mouse IFN-alpha in serum after I.M. injection.
Procedure: Blood is collected at 8 hours after dosing and using ELISA the protein levels of G-CSF and interferon-alpha (IFN-alpha) is determined by ELISA and are shown in Table 81.
Data set [7] relates to mice. In words: In vivo cytokine expression study (serum IFN-alpha). The note with it: mouse serum; I.M. 200 ug mRNA; after 8 hours.
Procedure: After 8 hours serum was collected from the mice and analyzed for interferon-alpha (IFN-alpha) expression.
A short description of data set [8]: Stability of modified RNA on storage (gel electrophoresis). The class given is physicochemical. Particulars: gel electrophoresis. As for the experimental part: Stability experiments were conducted to obtain a better understanding of storage conditions to retain the integrity of modified RNA. […] After the mRNA had been stored for 0 hours, 2 hours, 6 hours, 24 hours, 48 hours, 5 days and 14 days, the mRNA was analyzed by gel electrophoresis using a Bio-Rad EXPERION′ system. The modified, unmodified and lipoplexed G-CSF mRNA was also stored in RNASTABLE® (Biomatrica, Inc. San Diego, Calif.) at 40° C. or water at −80° C. or 40° C. for 35 days before being analyzed by gel electrophoresis.
mRNA samples stored at 4° C., 25° C. and 37° C. were stored in 1× TE buffer or the formulation buffer (150 mM sodium chloride, 2 mM calcium chloride, 2 mM phosphate, 0.5 mM EDTA at a pH of 6.5). The mRNA stored at 4° C. was stable to at least 60 days in both the TE and formulation buffer. At 25° C. the mRNA in formulation buffer was stable out to 14 days and the TE buffer was stable out to at least 6 days. Storage of mRNA in the formulation buffer at 37° C. was stable to 6 days compared to the TE buffer which was stable only until 4 days.

In data set [9] the test system is HEK293 cells. Put plainly: In vitro expression of VEGF modified mRNA (ELISA). The class given is cell-based.

This is an account of results in US20160193299A1, “MODIFIED NUCLEOSIDE, NUCLEOTIDE, AND NUCLEIC ACID COMPOSITIONS” (Moderna Therapeutics, Inc., priority 2011, published 2016).

On to Albumin, for which the “secreted G-CSF protein” value came to 81050 pg/mL in data set [1], 173300 pg/mL in data set [2] and 122050 pg/mL in data set [3].
“Natural Luciferase: natural luciferase mRNA SEQ ID NO: 16, Cap1”: in data set [4], the AIM2 transcript level is on record as 0.251 fold-induction relative to HPRT, the IFIT-1 transcript level is recorded as 151.218 fold-induction relative to HPRT, the IFNa transcript level is on record as 0.067 fold-induction relative to HPRT and the IFNb transcript level was 11.404 fold-induction relative to HPRT. In data set [4], the IL6 transcript level was 20.6 fold-induction relative to HPRT, the OAS-1 transcript level is given as 20.778 fold-induction relative to HPRT, the PKR transcript level is given as 16.001 fold-induction relative to HPRT and the RIG-I transcript level is on record as 71.5 fold-induction relative to HPRT. Also, the TNFa transcript level in data set [4] is reported as 0.526 fold-induction relative to HPRT.
As to Prolactin, the “secreted G-CSF protein” value worked out at 1525 pg/mL in data set [1], 9800 pg/mL in data set [2] and 7875 pg/mL in data set [3].
In the same order, the values of α-1-anti trypsin are 5000 pg/mL, 8475 pg/mL and 9950 pg/mL.

B1: G-CSF unmodified: unmodified G-CSF mRNA SEQ ID NO: 6, Cap1 (nucleic acid, listed as Homo sapiens)
chain: GGGAAAUAAGAGAGAAAAGAAGAGUAAGAAGAAAUAUAAGAGCCACCAUGGCCGGUCCCGCGACCCAAAGCCCCAUGAAACUUAUGGCCCUGCAGUUGCUGCUUUGGCACUCGGCCCUCUGGACAGUCCAAGAAGCGACUCCUCUCGGACCUGCCUCAUCGUUGCCGCAGUCAUUCCUUUUGAAGUGUCUGGAGCAGGUGCGAAAGAUUCAGGGCGAUGGAGCCGCACUCCAAGAGAAGCUCUGCGCGACAUACAAACUUUGCCAUCCCGAGGAGCUCGUACUGCUCGGGCACAGCUUGGGGAUUCCCUGGGCUCCUCUCUCGUCCUGUCCGUCGCAGGCUUUGCAGUUGGCAGGGUGCCUUUCCCAGCUCCACUCCGGUUUGUUCUUGUAUCAGGGACUGCUGCAAGCCCUUGAGGGAAUCUCGCCAGAAUUGGGCCCGACGCUGGACACGUUGCAGCUCGACGUGGCGGAUUUCGCAACAACCAUCUGGCAGCAGAUGGAGGAACUGGGGAUGGCACCCGCGCUGCAGCCCACGCAGGGGGCAAUGCCGGCCUUUGCGUCCGCGUUUCAGCGCAGGGCGGGUGGAGUCCUCGUAGCGAGCCACCUUCAAUCAUUUUUGGAAGUCUCGUACCGGGUGCUGAGACAUCUUGCGCAGCCGUGAAGCGCUGCCUUCUGCGGGGCUUGCCUUCUGGCCAUGCCCUUCUUCUCUCCCUUGCACCUGUACCUCUUGGUCUUUGAAUAAAGCCUGAGUAGGAAG
modifications: Cap1
Turning to B1, the IFN-beta in data set [5] (250 ng transfected daily for 5 days, 6 hours) was 0 pg/mL; in data set [5] (daily transfection, Day 1), 1363 pg/mL; in [5] (daily transfection, Day 2) it was 238 pg/mL; in [5] (daily transfection, Day 3) it was 225 pg/mL; in data set [5] (daily transfection, Day 4) it was 363 pg/mL; in data set [5] (daily transfection, Day 5) it was 225 pg/mL. Moreover, the IL-6 in [5] (daily transfection, 6 hours) amounted to 3596 pg/mL; in data set [5] (daily transfection, Day 1), 15207 pg/mL; in [5] (daily transfection, Day 2) it was 12415 pg/mL; in data set [5] (daily transfection, Day 3), 5017 pg/mL; in [5] (daily transfection, Day 4) it was 4267 pg/mL; in data set [5] (daily transfection, Day 5), 3094 pg/mL. Further, the “PC Ratio” value in data set [6] (Protein:Cytokine ratio, G-CSF / IFN-alpha in mouse serum) turned out to be 9. For the same molecule, the G-CSF protein in data set [6] (human G-CSF in mouse serum, I.M., 200 ug/mouse mRNA (R848 75 ug) in 5% sucrose, 8 hours after dosing) is 605.6 pg/mL. Also, the IFN-alpha expression in data set [6] (mouse IFN-alpha in serum, I.M., 200 ug/mouse mRNA (R848 75 ug), 8 hours after dosing) is 67.01 pg/mL. This molecule came in with an IFN-alpha in [7] of 67.012 pg/mL. The “stable out to (storage time)” value amounted to 48 h in data set [8] (stored at 25 C), 6 h in data set [8] (stored at 37 C) and 2 h in data set [8] (stored at 50 C).

B2: VEGF-A: modified mRNA VEGF-A SEQ ID NO: 19, Cap1, fully modified with 5-methylcytosine and pseudouridine, Lipofectamine2000 complexed (nucleic acid, listed as Homo sapiens)
sense: GGGAAAUAAGAGAGAAAAGAAGAGUAAGAAGAAAUAUAAGAGCCACCAUGAACUUUCUCUUGUCAUGGGUGCACUGGAGCCUUGCGCUGCUGCUGUAUCUUCAUCACGCUAAGUGGAGCCAGGCCGCACCCAUGGCGGAGGGUGGCGGACAGAAUCACCACGAAGUAGUCAAAUUCAUGGACGUGUACCAGAGGUCGUAUUGCCAUCCGAUUGAAACUCUUGUGGAUAUCUUUCAAGAAUACCCCGAUGAAAUCGAGUACAUUUUCAAACCGUCGUGUGUCCCUCUCAUGAGGUGCGGGGGAUGCUGCAAUGAUGAAGGGUUGGAGUGUGUCCCCACGGAGGAGUCGAAUAUCACAAUGCAAAUCAUGCGCAUCAAACCACAUCAGGGUCAGCAUAUUGGAGAGAUGUCCUUUCUCCAGCACAACAAAUGUGAGUGUAGACCGAAGAAGGACCGAGCCCGACAGGAAAACCCAUGCGGACCGUGCUCCGAGCGGCGCAAACACUUGUUCGUACAAGACCCCCAGACAUGCAAGUGCUCAUGUAAGAAUACCGAUUCGCGGUGUAAGGCGAGACAGCUGGAAUUGAACGAGCGCACGUGUAGGUGCGACAAGCCUAGACGGUGAGCUGCCUUCUGCGGGGCUUGCCUUCUGGCCAUGCCCUUCUUCUCUCCCUUGCACCUGUACCUCUUGGUCUUUGAAUAAAGCCUGAGUAGGAAG
modifications: Cap1, polyA, 5mC/pseudoU, Lipofectamine2000 complexed
Turning to B2, the Protein worked out at 0 pg/mL in [9] (amount transfected 2 pg); 0 pg/mL in data set [9] (amount transfected 10 pg); 0 pg/mL in data set [9] (amount transfected 39 pg); 189.6 pg/mL in [9] (amount transfected 156 pg); 2321.23 pg/mL in [9] (amount transfected 625 pg); 10038 pg/mL in data set [9] (amount transfected 2.5 ng). Moreover, the results for the Protein in [9] (amount transfected 10 ng) and in data set [9] (amount transfected 610 fg) were 10495 pg/mL and 0 pg/mL, respectively.
